Measurements from publication PMC6397515.

Key:
[1] = biological target: HypT RD M206Q mutant protein (Salmonella enterica serovar Typhimurium); assay: crystal structure
[2] = biological target: full-length StHypT protein (HypT of Salmonella enterica serovar Typhimurium, WP_000383509) (Salmonella enterica serovar Typhimurium); assay: crystal structure
[3] = biological target: full-length StHypT protein (HypT of Salmonella enterica serovar Typhimurium, WP_000383509) (Salmonella enterica serovar Typhimurium); assay: SEC

## HypT RD M206Q mutant protein (domain or fragment)
[1]
  stoichiometry N: 2

## full-length StHypT protein (HypT of Salmonella enterica serovar Typhimurium, WP_000383509) (natural protein)
[2]
  stoichiometry N: 4
[3]
  stoichiometry N: 4
